The results in this text go back to the Human Domainome abundance scans (Beltran et al. 2025).

B1: Neutrophil cytosol factor 2, residues 456 to 514; numbered along this chain, P19878 (parent)
chain: LKKGSQVEALFSYEATQPEDLEFQEGDIILVLSKVNEEWLEGECKGKVGIFPKVFVEDC

± gives the uncertainty stated by the source.

In this data set the parent is B1. As to the kind of experiment: abundance fitness (aPCA) (normalised: wild type 0, dead -1); higher = more abundant; growth selection in yeast, the domain comes from the species named. Conditions: Homo sapiens.
In the case of LKKGSQVEALFSYEATQPEDLEFQEGDIILVLSKVNEEWLEGECKSKVGIFPKVFVEDC, the abundance fitness is -0.928 ± 0.18. Then LKKGSQVEALFSYEATQPEDLEFQEGDIILVLSKVNEEWLEGECKTKVGIFPKVFVEDC, with -0.904 ± 0.27; and LKKGSQVEALFSYEATQPEDLEFQEGDIILVLSKVNEEWDEGECKGKVGIFPKVFVEDC, with -0.544 ± 0.17.

In the case of LKKGSQVEALFSYEATQPEDLEFQEGLIILVLSKVNEEWLEGECKGKVGIFPKVFVEDC, the abundance fitness is -0.28 ± 0.11. For the variant LKKGSQVEALFSYEATQPEDLEFQEGCIILVLSKVNEEWLEGECKGKVGIFPKVFVEDC, the abundance fitness is -0.301 ± 0.13. Then LKKGSQVEALFSYEATQPEDLEFQEGHIILVLSKVNEEWLEGECKGKVGIFPKVFVEDC, with -0.488 ± 0.18.

With LKKGSQVEALFSYEATQPEDWEFQEGDIILVLSKVNEEWLEGECKGKVGIFPKVFVEDC, the abundance fitness was -0.457 ± 0.2. As to LKKGSQVEALFSYEATQPEDHEFQEGDIILVLSKVNEEWLEGECKGKVGIFPKVFVEDC, the abundance fitness is -0.483 ± 0.19.

Regarding LKKGSQVEALFSYEATQPEDYEFQEGDIILVLSKVNEEWLEGECKGKVGIFPKVFVEDC, the abundance fitness is -0.721 ± 0.15. Turning to LKKGSQVEALFSYEATQPEDLEFQEGDIILVLSKVNEHWLEGECKGKVGIFPKVFVEDC, the abundance fitness is -0.362 ± 0.17. Take LKKGSQVEALFSYEATQPEDLEFQEGDIILVLSKVNERWLEGECKGKVGIFPKVFVEDC: the abundance fitness is -0.941 ± 0.21.

With LKKGSQVEALFSYEATQPEDLEFQEGDIILVLSKVNEGWLEGECKGKVGIFPKVFVEDC, the abundance fitness was -0.207 ± 0.098.

On to LKKGSQVEALFSYEATQPEDLEFQEGDIILVLSKVNEEWLEGECIGKVGIFPKVFVEDC, for which the abundance fitness was -0.937 ± 0.18. Then LKKGSQVEALFSYEATQPEDLEFQEGDIILVLSKVNEEWLEGECNGKVGIFPKVFVEDC, with 0.203 ± 0.096; and LKKGSQVVALFSYEATQPEDLEFQEGDIILVLSKVNEEWLEGECKGKVGIFPKVFVEDC, with 0.959 ± 0.091; and LKKGSQVLALFSYEATQPEDLEFQEGDIILVLSKVNEEWLEGECKGKVGIFPKVFVEDC, with 0.433 ± 0.1.

For the variant LKKGSQVFALFSYEATQPEDLEFQEGDIILVLSKVNEEWLEGECKGKVGIFPKVFVEDC, the abundance fitness came out at 0.452 ± 0.17. Then LKKGSQVEALFSYEATQPEDLEFQEGDIILVLSKVNEEWLEGECKGKVKIFPKVFVEDC, with 0.002 ± 0.19; and LKKGSQVEALFSYEATQPEDLEFQEGDIILVLSKVNEEWLEGECKGKVCIFPKVFVEDC, with -0.756 ± 0.17; and LKKGSQVEALRSYEATQPEDLEFQEGDIILVLSKVNEEWLEGECKGKVGIFPKVFVEDC, with 0.145 ± 0.15. With LKKGSQVEALFSYEATQPEDLEFQEGDIILVLSKVNEEWLEGECKGKVGIFQKVFVEDC, the abundance fitness is -0.645 ± 0.36.

On to LKKGSQVEALFSYEATVPEDLEFQEGDIILVLSKVNEEWLEGECKGKVGIFPKVFVEDC, for which the abundance fitness is -0.643 ± 0.13. On to LKKGSQVEALFSYEATQPEDLEFQEGDIILVLSKVNEEWLEGECKGKVGIFPKVFVEDR, for which the abundance fitness was -0.173 ± 0.2. For the variant LLKGSQVEALFSYEATQPEDLEFQEGDIILVLSKVNEEWLEGECKGKVGIFPKVFVEDC, the abundance fitness was -0.46 ± 0.2. Then LKKGSQVEPLFSYEATQPEDLEFQEGDIILVLSKVNEEWLEGECKGKVGIFPKVFVEDC, with 0.082 ± 0.41; and LKKGSQVERLFSYEATQPEDLEFQEGDIILVLSKVNEEWLEGECKGKVGIFPKVFVEDC, with -0.688 ± 0.23; and LKKGSQVENLFSYEATQPEDLEFQEGDIILVLSKVNEEWLEGECKGKVGIFPKVFVEDC, with -0.537 ± 0.42.

On to LKKGSQVEALFSYEATQPEDLETQEGDIILVLSKVNEEWLEGECKGKVGIFPKVFVEDC, for which the abundance fitness was -0.772 ± 0.22. Then LKKGSQVEALFSYEATQPEDLEQQEGDIILVLSKVNEEWLEGECKGKVGIFPKVFVEDC, with 0.047 ± 0.35. Then LKKGSQVEALFSYEATQPEDLEPQEGDIILVLSKVNEEWLEGECKGKVGIFPKVFVEDC, with -0.848 ± 0.35.

LKKGSQVEALFSYEATQPEDLEYQEGDIILVLSKVNEEWLEGECKGKVGIFPKVFVEDC: the abundance fitness is -0.517 ± 0.14. With LKKGFQVEALFSYEATQPEDLEFQEGDIILVLSKVNEEWLEGECKGKVGIFPKVFVEDC, the abundance fitness came out at 0.011 ± 0.13.

Take LKKGIQVEALFSYEATQPEDLEFQEGDIILVLSKVNEEWLEGECKGKVGIFPKVFVEDC: the abundance fitness was -0.299 ± 0.3. Then LKKGKQVEALFSYEATQPEDLEFQEGDIILVLSKVNEEWLEGECKGKVGIFPKVFVEDC, with 0.309 ± 0.23; and LKKGSQVEALFSYEATQPEDLEFQHGDIILVLSKVNEEWLEGECKGKVGIFPKVFVEDC, with 0.447 ± 0.31; and LKKGSQVEALFSYEATQEEDLEFQEGDIILVLSKVNEEWLEGECKGKVGIFPKVFVEDC, with -0.48 ± 0.27. For the variant LKKGSQVEALFSYEATQPEDLEFQEGDIILVLSKVNFEWLEGECKGKVGIFPKVFVEDC, the abundance fitness was -0.697 ± 0.2.

Regarding LKKGSQVEALFSYEATQPEDLEFQEGDIILVLSKVNIEWLEGECKGKVGIFPKVFVEDC, the abundance fitness was -0.445 ± 0.17. Then LKKGSQVEALFSYEATQPEDLEFQEGDIILVLSKVDEEWLEGECKGKVGIFPKVFVEDC, with -0.477 ± 0.17. Then LKKGSQVEALFSYEATQPEDLEFQEGDIILVLSKVCEEWLEGECKGKVGIFPKVFVEDC, with -0.761 ± 0.15; and LKKGSQVEALFSYEATQPEDLEFQEGDIILVLSKVNEEYLEGECKGKVGIFPKVFVEDC, with -0.321 ± 0.1; and LKKGSQVEALFSYEATQPEDLEFQEGDIILVLSKVNEEWLEGECKGKVGIHPKVFVEDC, with -0.18 ± 0.15. For LKKGSQVEALFSYEATQPEDLEFQEGDIILVLSKVNEEWLEGECKGKVGIFPKVAVEDC, the abundance fitness is 0.034 ± 0.11. Then LKKGSQVEALFSYEATQPEDLEFQEGDIILVLSKVNEEWLEGECKGKVGIFPKPFVEDC, with -0.459 ± 0.23; and LKKGSQVEALFSYEATQPEDLEFQEGDIILVLSKVNEEWLEGECKGKVGIFPKKFVEDC, with 0.663 ± 0.15.
